Holding throughout (type): biochemical
Data set [1] in a line: Saccharification assay (bagasse assay) with and without β-glucosidase (Example 1). As to conditions: T. reesei CBH I variants; activity without β-glucosidase (BG) relative to with BG. On the procedure:
This assay measures the activity of CBH I on bagasse, a lignocellulosic substrate. Reactions were run in 10 ml vials with 5% dilute acid pretreated bagasse (250 mg solids per 5 ml reaction). Each reaction contained 4 mg CBH I enzyme/g solids, 200 mM MES pH 6, kanamycin, and chloramphenicol. Reactions were incubated at 35° C. in hybridization incubators (Robbins Scientific), rotating at 20 RPM. Time points were taken by transferring a sample of homogenous slurry (150 μl) into a 96-well deep well plate and quenching the reaction with stop buffer (450 μl of 500 mM sodium carbonate, pH 10). Time point measurements were taken every 24 hours for 72 hours.
(§1) Tolerance to cellobiose (or inhibition caused by cellobiose) was tested in two ways in the CBH I assays. A direct-dose tolerance method can be applied to all of the CBH I assays (i.e., 4-MUL, PASC, and/or bagasse assays), and entails the exogenous addition of a known amount of cellobiose into assay mixtures. A different indirect method entails the addition of an excess amount of β-glucosidase (BG) to PASC and bagasse assays (typically, 1 mg β-glucosidase/g solids loaded). BG will enzymatically hydrolyze the cellobiose generated during these assays; therefore, CBH I activity in the presence of BG can be taken as a measure of activity in the absence of cellobiose. Furthermore, when activity in the presence and absence of BG are similar, this indicates tolerance to cellobiose.

A short description of data set [2]: 4-MUL cellobiose tolerance/inhibition assay, dose-response IC50 (Example 2). Put shortly: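 IC50 reflects cellobiose concentration halving activity, fitted by four-parameter dose-response with zero activity fixed at knockout-strain background. Assays used 4-MUL (0.5 mM) with enzyme at 5 μg/mL or less, pH 6 MES, 25 mM gluconolactone blocking BG, cellobiose up to 100 mM; 4-MU fluorescence read.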

The nature of data set [3]: 4-MUL assay with and without cellobiose (Example 1).
A short description of data set [4]: PASC assay, cellobiose dose-response (Example 1). As to conditions: FIG. 3. How it is done:
This assay measures the activity of CBH I using PASC as the substrate. During the assay, the concentration of PASC is monitored by a fluorescent signal derived from calcofluor binding to PASC (ex/em 365/440 nm). The assay is initiated by mixing enzyme (15 μl) and reaction buffer (85 μl of 0.2% PASC, 200 mM MES, pH 6), and then incubating at 35° C. while shaking at 225 RPM. After 2 hours, one reaction volume of calcofluor stop solution (100 μg/ml in 500 mM glycine pH 10) is added and fluorescence read-outs obtained (ex/em 365/440 nm).
as §1

The mark [5] stands for this setting: Secondary screening, CBH I levels normalized to 5 μg/mL, cellobiose range 0.00085-100 mM, read-out: IC50.
Where [6] appears, read: secondary screening, CBH I levels normalized to 5 μg/mL, cellobiose range 0.0001-100 mM, read-out: Average IC50.

Substitutions are numbered along the chain they refer to. Numbers in names are those of the source. Where two headings read alike, the source gives them in different places.

B1: 411A: CBH I variant with site 411 mutated to alanine (protein, listed as Trichoderma reesei)
chain: QSACTLQSETHPPLTWQKCSSGGTCTQQTGSVVIDANWRWTHATNSSTNCYDGNTWSSTLCPDNETCAKNCCLDGAAYASTYGVTTSGNSLSIGFVTQSAQKNVGARLYLMASDTTYQEFTLLGNEFSFDVDVSQLPCGLNGALYFVSMDADGGVSKYPTNTAGAKYGTGYCDSQCPRDLKFINGQANVEGWEPSSNNANTGIGGHGSCCSEMDIWEANSISEALTPHPCTTVGQEICEGDGCGGTYSDNRYGGTCDPDGCDWNPYRLGNTSFYGPGSSFTLDTTKKLTVVTQFETSGAINRYYVQNGVTFQQPNAELGSYSGNELNDDYCTAEEAEFGGSSFSDKGGLTQFKKATSGGMVLVMSLWDDYYANMLWLDSTYPTNETSSTPGAVAGSCSTSSGVPAQVESQSPNAKVTFSNIKFGPIGSTGNPSGGNPPGGNPPGTTTTRRPATTTGSSPGPTQSHYGQCGGIGYSGPTVCASGTTCQVLNPYYSQCL
In the case of B1, the “Tolerance to cellobiose accumulation % Activity in Bagasse Assay (+/−BG)” value in data set [1] amounted to 94%. Also, the IC50 in data set [2] (setting [5]) came to 1060 µM; in data set [2] (averaged IC50 values from Tables 8-11, read-out: measured IC50 of cellobiose (merged values)), 1170 µM; in data set [2] (setting [6]) it was 918 µM.

B2: R268A: T. reesei CBH I with an R268A substitution (protein, listed as Trichoderma reesei)
chain: B1 chain with R251A, A394R
In the case of B2, in data set [1], the “Tolerance to cellobiose accumulation % Activity in Bagasse Assay (+/−BG)” value came to 86%. Further, the IC50 in data set [2] (setting [5]) was determined as 574 µM; in data set [2] (setting [6]) it was 423 µM.

B3: R268A/R411K: T. reesei CBH I with R268A and R411K substitutions (protein, UniProt P62694 18-513, looked up, variant R268A R411K)
Exoglucanase 1: QSACTLQSETHPPLTWQKCSSGGTCTQQTGSVVIDANWRWTHATNSSTNCYDGNTWSSTLCPDNETCAKNCCLDGAAYASTYGVTTSGNSLSIGFVTQSAQKNVGARLYLMASDTTYQEFTLLGNEFSFDVDVSQLPCGLNGALYFVSMDADGGVSKYPTNTAGAKYGTGYCDSQCPRDLKFINGQANVEGWEPSSNNANTGIGGHGSCCSEMDIWEANSISEALTPHPCTTVGQEICEGDGCGGTYSDNAYGGTCDPDGCDWNPYRLGNTSFYGPGSSFTLDTTKKLTVVTQFETSGAINRYYVQNGVTFQQPNAELGSYSGNELNDDYCTAEEAEFGGSSFSDKGGLTQFKKATSGGMVLVMSLWDDYYANMLWLDSTYPTNETSSTPGAVKGSCSTSSGVPAQVESQSPNAKVTFSNIKFGPIGSTGNPSGGNPPGGNRGTTTTRRPATTTGSSPGPTQSHYGQCGGIGYSGPTVCASGTTCQVLNPYYSQCL
For B3, the “Tolerance to 250 mg/L cellobiose % Activity in 4-MUL Assay (+/−Cellobiose)” value in data set [3] (T. reesei CBH I variants, activity with 250 mg/L cellobiose relative to without cellobiose) was determined as 97%. The “Tolerance to cellobiose accumulation % Activity in Bagasse Assay (+/−BG)” value in data set [1] is 94%.

B4: R411K: T. reesei CBH I with an R411K substitution (protein, UniProt P62694 18-513, looked up, variant R411K)
Exoglucanase 1: B3 Exoglucanase 1 with A251R
For B4, the “Tolerance to cellobiose accumulation % Activity in Bagasse Assay (+/−BG)” value in data set [1] was 89%. Further, the 50% inhibitory concentration (IC50) was found to be 3060 µM in data set [2] (setting [5]) and 2080 µM in data set [2] (setting [6]).

B5: wild type T. reesei CBH I: wild type T. reesei CBH I (SEQ ID NO:2) (protein, listed as Trichoderma reesei)
chain: MYRKLAVISAFLATARAQSACTLQSETHPPLTWQKCSSGGTCTQQTGSVVIDANWRWTHATNSSTNCYDGNTWSSTLCPDNETCAKNCCLDGAAYASTYGVTTSGNSLSIGFVTQSAQKNVGARLYLMASDTTYQEFTLLGNEFSFDVDVSQLPCGLNGALYFVSMDADGGVSKYPTNTAGAKYGTGYCDSQCPRDLKFINGQANVEGWEPSSNNANTGIGGHGSCCSEMDIWEANSISEALTPHPCTTVGQEICEGDGCGGTYSDNRYGGTCDPDGCDWNPYRLGNTSFYGPGSSFTLDTTKKLTVVTQFETSGAINRYYVQNGVTFQQPNAELGSYSGNELNDDYCTAEEAEFGGSSFSDKGGLTQFKKATSGGMVLVMSLWDDYYANMLWLDSTYPTNETSSTPGAVRGSCSTSSGVPAQVESQSPNAKVTFSNIKFGPIGSTGNPSGGNPPGGNPPGTTTTRRPATTTGSSPGPTQSHYGQCGGIGYSGPTVCASGTTCQVLNPYYSQCL
On to B5, for which, in data set [4], the “IC50 of cellobiose (PASC assay)” value is given as 3 g/L and the “cellobiose concentration at which inhibition starts (PASC assay)” value is “around 1 g/L”. In data set [3] (T. reesei CBH I and R268/R411 variants, 250 mg/L cellobiose), the “% activity remaining in 4-MUL assay in the presence of cellobiose” value was determined as 23%.

B6: R268K: T. reesei CBH I with an R268K substitution (protein, listed as Trichoderma reesei)
chain: B5 chain with R268K
With B6, the “Tolerance to cellobiose accumulation % Activity in Bagasse Assay (+/−BG)” value in data set [1] was determined as 92%. Besides, the figures for the IC50 in data set [2] (setting [5]) and in data set [2] (setting [6]) were 134 µM and 93 µM, respectively.

As a reminder, the IC50 is the concentration needed to halve the response being measured.

The values above are taken from patent US20140287471A1, “VARIANT CBH I POLYPEPTIDES WITH REDUCED PRODUCT INHIBITION” (BP CORPORATION NORTN AMERICA INC., priority 2011, published 2014).
